Data on 4 molecules can be found in US20100248978, “METHOD FOR IDENTIFYING THE INTERACTION PARTNER OF AN ACTIVE AGENT” (Bayer Cropscience AG, published 2010).

Common to all, as to conditions: tags: His-tag; biotinylated in the SELEX runs
Data set [1] concerns the target T1, p-hydroxyphenylpyruvate dioxygenase (HPPD) (Arabidopsis thaliana, UniProt P93836 P93836:1-445).
T1 sequence: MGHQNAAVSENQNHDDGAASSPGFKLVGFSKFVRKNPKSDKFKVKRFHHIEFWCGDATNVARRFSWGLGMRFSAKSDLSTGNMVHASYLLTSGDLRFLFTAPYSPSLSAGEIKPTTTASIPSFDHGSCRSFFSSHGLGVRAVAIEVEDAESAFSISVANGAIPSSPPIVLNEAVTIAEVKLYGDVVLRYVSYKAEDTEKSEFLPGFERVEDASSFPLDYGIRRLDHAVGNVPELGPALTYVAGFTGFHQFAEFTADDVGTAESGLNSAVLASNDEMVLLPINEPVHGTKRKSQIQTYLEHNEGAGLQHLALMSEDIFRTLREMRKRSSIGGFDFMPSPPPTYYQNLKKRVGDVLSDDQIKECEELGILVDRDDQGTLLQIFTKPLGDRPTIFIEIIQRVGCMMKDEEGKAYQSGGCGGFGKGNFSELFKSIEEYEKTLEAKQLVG
Description: FP; nitrocellulose filter retention (method is filter binding). As to the method: (§1) The bound RNA molecules were eluted by heating to 95° C. and amplified by RT-PCR and in vitro transcription before starting the next selection cycle. A nitrocellulose filter retention assay was used to determine binding of selected, radioactively labelled RNA libraries to recombinant protein (Methods in Enzymology, Vol 267, Combinatorial Chemistry, (1996), Abelson J. N. and Simon M. I., eds. Academic Press, San Diego). RNA library (−80 nM) was incubated with increasing concentrations of target protein in binding buffer and subsequently filtered through nitrocellulose filters which bind to proteins but not to RNA molecules. RNA bound to the target protein is retained within the complex on the filter and was quantified by a phosphoimager. Values were calculated as the percentage of total radiolabeled RNA in the reaction.
(§2) To determine the binding properties of individual aptamers isolated as part of the mixture of aptamers binding to HPPD in the previous example, aptamers were cloned into a vector, and 24 clones were sequenced. […]

Data set [2] concerns the target T1, p-hydroxyphenylpyruvate dioxygenase …. Nature of the data set: filter; nitrocellulose filter retention. Here is the method:
as §1, §2

Data set [3] shares this target. Nature of the data set: filter; 20 mM Hepes pH 7.4, 150 mM NaCl, 3 mM MgCl2.
Description: as §1, with “The T7-RNA polymerase promoter is underlined. The double stranded DNA template was used to transcribe the initial RNA library. The procedures to produce an RNA library and to perform a SELEX experiment are well known to a person skilled in the art and described in, e.g., Methods in Enzymology, Vol 267, Combinatorial Chemistry (1996), Abelson J. N. and Simon M. I., eds. Academic Press, San Diego. Subsequently, the complexes between target and RNA were captured on streptavidin-coated beads and unbound RNA was removed by washing with binding buffer. The” for “The”, “reaction. […]” for “reaction.”

B1: S116D-C8 (ssRNA)
RNA: GGGAGAGGAGGGAGAUAGAUAUCAAUAAAGUCGGUGACACCACGCAUCCAAAUACCGGUACGCGGAACUAAUAGUUUGUCCUCACGGUGGAUGG
Molecule B1 yielded a Kd in data set [1] of 120 nM.

B2: S116B-C4 (ssRNA)
RNA: GGGAGAGGAGGGAGAUAGAUAUCAAGUAACAAAUGAUACUUUCCAAGCAUAAUUCAUUCGCAGCCCGAAUUAAGUUUGUCCUCACGGUGGAUGG
Take B2: in data set [2], the Kd is 740 nM.

B3: S115A-C1 (ssRNA)
RNA: GGGAGAGGAGGGAGAUAGAUAUCAACAAUGACUAGCCGUGUAAGUGGUCUCGUACAUCCGAAAAAGACGACCCAGUUUGUCCUCACGGUGGAUGG
Consider B3, for which the dissociation constant (Kd) in data set [3] is 128 nM. That is a sub-micromolar value.

B4: S116C-C18 (ssRNA)
RNA: GGGAGAGGAGGGAGAUAGAUAUCAAUAUCGCCACGUUACGAGUACCAAGCUUUAUUUCCGCAGCCCGAUAGAGUUUGUCCUCACGGUGGAUGG
For B4, in data set [2], the affinity, expressed as Kd, was 832 nM.

The term Kd denotes a measure of binding affinity in units of concentration. A higher Kd goes with a looser complex.
